The values below come from article PMC6522505.

In the experiment the target is secCl (CG7589), Cys-loop ligand-gated ion channel subunit (Drosophila melanogaster).

Consider “CG6927, Cys-loop ligand-gated ion channel subunit (natural protein)”, for which the shift in reversal potential in low chloride buffer, Xenopus oocytes co-expressing secCl and CG6927 was determined as 53 mV.
